The supplement of paper PMC10065799, “High-throughput profiling of sequence recognition by tyrosine kinases and SH2 domains using bacterial peptide display” (eLife, 2023)

system: Fer (mouse); test: phosphorylation enrichment, bacterial display (enrichment ratio); higher = better substrate or ligand; peptides without Tyr show the background
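Further: 11-residue human phosphosite peptides and single-mutation variants displayed on the E. coli surface, counted by deep sequencing, each peptide's frequency after selection divided by its frequency in the unselected input library; frequency after pTyr selection over input frequency; kinase dosed for 20-30% of maximal phosphorylation in three min.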

Sequence | phosphorylation enrichment
QRRLVYYERGA [RYR1_Y245_G248R] | 0.226
SCRSKYVGLWG [KCNQ1_Y184_G179S] | 0.465
RFLERYIYNRQ [HLA-DPB1_Y57_E62Q] | 0.655
GRTPLYMDRQG [AGXT_Y194_G190R] | 0.344
STEAIYWRYSK [SH3PXD2B_Y42_R43W] | 0.502
KGEPQYSSHSS [SIPA1L3_Y1265] | 0.45
IPTPAYQSSPA [PDCD6IP_Y727] | 0.373
SSMIDYNPLEK [MYOC_Y479] | 0.44
HCHEGYILHGA [SVEP1_Y2921] | 0.45
ENGPYYTSYPP [GDAP2_Y488] | 0.707
PLLTDYSPQLQ [OTC_Y345_S340P] | 0.879
VDSGVYAVPPP [BCAR1_Y410] | 5.46
ATPKGYELDAS [OTC_Y223_P225L] | 0.465
GHPFAYDWISI [BEST1_Y227_L224P_YF] | 14.7
GIMEEYQLPYY [BMPR1A_Y453_V450M] | 0.942
IKSSIYDNRKE [ARAP2_Y380] | 0.355
GGQSVYHVNLH [HINT1_Y109_H112N] | 0.337

Sequence | phosphorylation enrichment
HEKFLYFLPAS [DYNC2H1_Y346] | 0.931
TMKSHYMELYD [BBS2_Y644_R643H] | 0.453
PGPPGYCDSSQ [COL12A1_Y3043] | 0.77
VLTSKYPGGGG [HBA1_Y141_R142P] | 0.303
TQKLAYMELQQ [CENPF_Y700] | 0.513
FGMSTYITRED [FNDC3B_Y180_YF] | 0.533
DSFWSYCNAVA [SLC20A2_Y436_S434W_YF] | 0.57
MGSYNYLGFAW [SPTLC2_Y178_R183W] | 0.617
KAIMTYVSSFF [ACTN4_Y260_YF] | 0.437
GMRHGYGVRQS [JPH2_Y141] | 0.328
PFWKLYESVKK [MKI67_Y241] | 1.8
LAGRFYALKSM [CKB_Y174_YF] | 0.46
ENAGFYFQVSA | 0.474
NPQKPYFIRLY [WAS_Y83_S82P] | 0.474
DVLEFYNSKKT [PAK1_Y131] | 1.13
GIKAAYEAERG [LMNA_Y81_L85R] | 0.365

molecular target: Fyn (UniProt P06241); test: as above
Sequence (P06241 whole entry, looked up): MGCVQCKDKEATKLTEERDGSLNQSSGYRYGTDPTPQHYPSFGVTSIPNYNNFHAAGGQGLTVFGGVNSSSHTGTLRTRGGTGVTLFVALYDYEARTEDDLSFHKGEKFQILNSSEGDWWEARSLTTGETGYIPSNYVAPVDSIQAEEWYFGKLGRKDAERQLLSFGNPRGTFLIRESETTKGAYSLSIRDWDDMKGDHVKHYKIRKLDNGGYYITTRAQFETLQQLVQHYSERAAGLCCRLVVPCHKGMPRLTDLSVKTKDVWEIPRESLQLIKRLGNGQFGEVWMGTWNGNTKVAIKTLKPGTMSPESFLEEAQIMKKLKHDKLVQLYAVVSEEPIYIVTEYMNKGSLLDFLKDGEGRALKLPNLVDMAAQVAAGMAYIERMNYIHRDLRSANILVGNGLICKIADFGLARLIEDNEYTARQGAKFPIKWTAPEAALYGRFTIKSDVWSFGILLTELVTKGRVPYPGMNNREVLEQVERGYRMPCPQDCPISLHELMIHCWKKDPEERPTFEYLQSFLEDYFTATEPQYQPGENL

Sequence | phosphorylation enrichment
QRRLVYYERGA [RYR1_Y245_G248R] | 0.533
SCRSKYVGLWG [KCNQ1_Y184_G179S] | 0.419
RFLERYIYNRQ [HLA-DPB1_Y57_E62Q] | 0.813
GRTPLYMDRQG [AGXT_Y194_G190R] | 0.495
STEAIYWRYSK [SH3PXD2B_Y42_R43W] | 4.84
KGEPQYSSHSS [SIPA1L3_Y1265] | 0.554
IPTPAYQSSPA [PDCD6IP_Y727] | 0.406
SSMIDYNPLEK [MYOC_Y479] | 0.596
HCHEGYILHGA [SVEP1_Y2921] | 0.888
ENGPYYTSYPP [GDAP2_Y488] | 3.58
PLLTDYSPQLQ [OTC_Y345_S340P] | 0.698
VDSGVYAVPPP [BCAR1_Y410] | 8.7
ATPKGYELDAS [OTC_Y223_P225L] | 0.478
GHPFAYDWISI [BEST1_Y227_L224P_YF] | 0.478
GIMEEYQLPYY [BMPR1A_Y453_V450M] | 1.4
IKSSIYDNRKE [ARAP2_Y380] | 0.366
GGQSVYHVNLH [HINT1_Y109_H112N] | 1.01

Sequence | phosphorylation enrichment
HEKFLYFLPAS [DYNC2H1_Y346] | 1.87
TMKSHYMELYD [BBS2_Y644_R643H] | 0.69
PGPPGYCDSSQ [COL12A1_Y3043] | 0.643
VLTSKYPGGGG [HBA1_Y141_R142P] | 0.344
TQKLAYMELQQ [CENPF_Y700] | 0.455
FGMSTYITRED [FNDC3B_Y180_YF] | 0.676
DSFWSYCNAVA [SLC20A2_Y436_S434W_YF] | 0.527
MGSYNYLGFAW [SPTLC2_Y178_R183W] | 0.708
KAIMTYVSSFF [ACTN4_Y260_YF] | 0.559
GMRHGYGVRQS [JPH2_Y141] | 0.369
PFWKLYESVKK [MKI67_Y241] | 1.03
LAGRFYALKSM [CKB_Y174_YF] | 0.463
ENAGFYFQVSA | 0.329
NPQKPYFIRLY [WAS_Y83_S82P] | 0.354
DVLEFYNSKKT [PAK1_Y131] | 0.525
GIKAAYEAERG [LMNA_Y81_L85R] | 0.329

system: AncSZ; test: as above

Sequence | phosphorylation enrichment
QRRLVYYERGA [RYR1_Y245_G248R] | 0.427
SCRSKYVGLWG [KCNQ1_Y184_G179S] | 0.665
RFLERYIYNRQ [HLA-DPB1_Y57_E62Q] | 1.01
GRTPLYMDRQG [AGXT_Y194_G190R] | 0.575
STEAIYWRYSK [SH3PXD2B_Y42_R43W] | 1.33
KGEPQYSSHSS [SIPA1L3_Y1265] | 0.515
IPTPAYQSSPA [PDCD6IP_Y727] | 0.489
SSMIDYNPLEK [MYOC_Y479] | 0.971
HCHEGYILHGA [SVEP1_Y2921] | 1.45
ENGPYYTSYPP [GDAP2_Y488] | 1.31
PLLTDYSPQLQ [OTC_Y345_S340P] | 1.54
VDSGVYAVPPP [BCAR1_Y410] | 2.04
ATPKGYELDAS [OTC_Y223_P225L] | 0.966
GHPFAYDWISI [BEST1_Y227_L224P_YF] | 1.04
GIMEEYQLPYY [BMPR1A_Y453_V450M] | 5.83
IKSSIYDNRKE [ARAP2_Y380] | 1.13
GGQSVYHVNLH [HINT1_Y109_H112N] | 0.583

Sequence | phosphorylation enrichment
HEKFLYFLPAS [DYNC2H1_Y346] | 2.17
TMKSHYMELYD [BBS2_Y644_R643H] | 0.807
PGPPGYCDSSQ [COL12A1_Y3043] | 1.03
VLTSKYPGGGG [HBA1_Y141_R142P] | 0.349
TQKLAYMELQQ [CENPF_Y700] | 0.776
FGMSTYITRED [FNDC3B_Y180_YF] | 0.961
DSFWSYCNAVA [SLC20A2_Y436_S434W_YF] | 1.45
MGSYNYLGFAW [SPTLC2_Y178_R183W] | 1.11
KAIMTYVSSFF [ACTN4_Y260_YF] | 0.911
GMRHGYGVRQS [JPH2_Y141] | 0.451
PFWKLYESVKK [MKI67_Y241] | 1
LAGRFYALKSM [CKB_Y174_YF] | 1.86
ENAGFYFQVSA | 1.08
NPQKPYFIRLY [WAS_Y83_S82P] | 1.01
DVLEFYNSKKT [PAK1_Y131] | 1.08
GIKAAYEAERG [LMNA_Y81_L85R] | 0.566

system: c-Abl (mouse); test: as above

Sequence | phosphorylation enrichment
QRRLVYYERGA [RYR1_Y245_G248R] | 0.368
SCRSKYVGLWG [KCNQ1_Y184_G179S] | 0.541
RFLERYIYNRQ [HLA-DPB1_Y57_E62Q] | 0.811
GRTPLYMDRQG [AGXT_Y194_G190R] | 0.473
STEAIYWRYSK [SH3PXD2B_Y42_R43W] | 8.71
KGEPQYSSHSS [SIPA1L3_Y1265] | 0.498
IPTPAYQSSPA [PDCD6IP_Y727] | 0.504
SSMIDYNPLEK [MYOC_Y479] | 0.663
HCHEGYILHGA [SVEP1_Y2921] | 1.61
ENGPYYTSYPP [GDAP2_Y488] | 1.33
PLLTDYSPQLQ [OTC_Y345_S340P] | 1.02
VDSGVYAVPPP [BCAR1_Y410] | 20.9
ATPKGYELDAS [OTC_Y223_P225L] | 0.697
GHPFAYDWISI [BEST1_Y227_L224P_YF] | 0.562
GIMEEYQLPYY [BMPR1A_Y453_V450M] | 1.25
IKSSIYDNRKE [ARAP2_Y380] | 0.518
GGQSVYHVNLH [HINT1_Y109_H112N] | 0.491

Sequence | phosphorylation enrichment
HEKFLYFLPAS [DYNC2H1_Y346] | 1.4
TMKSHYMELYD [BBS2_Y644_R643H] | 0.693
PGPPGYCDSSQ [COL12A1_Y3043] | 0.707
VLTSKYPGGGG [HBA1_Y141_R142P] | 0.342
TQKLAYMELQQ [CENPF_Y700] | 0.94
FGMSTYITRED [FNDC3B_Y180_YF] | 0.693
DSFWSYCNAVA [SLC20A2_Y436_S434W_YF] | 0.745
MGSYNYLGFAW [SPTLC2_Y178_R183W] | 0.737
KAIMTYVSSFF [ACTN4_Y260_YF] | 0.527
GMRHGYGVRQS [JPH2_Y141] | 0.668
PFWKLYESVKK [MKI67_Y241] | 1.07
LAGRFYALKSM [CKB_Y174_YF] | 1.18
ENAGFYFQVSA | 0.797
NPQKPYFIRLY [WAS_Y83_S82P] | 0.544
DVLEFYNSKKT [PAK1_Y131] | 0.925
GIKAAYEAERG [LMNA_Y81_L85R] | 0.475
